Experimental data: patent publication US20160136234A1

Columns and labels:
Experiment in all cases: cell-based or functional assay
PKG1α (h) (human) = PKG1α (h) (human) (UniProt Q13976)
[1] = molecular target: EGFR(T790M, L858R) (h) (human) (UniProt P00533)
MST2 (h) (human) = molecular target: T1, MST2 (h) (human) (UniProt Q13188)
T1 sequence (looked up): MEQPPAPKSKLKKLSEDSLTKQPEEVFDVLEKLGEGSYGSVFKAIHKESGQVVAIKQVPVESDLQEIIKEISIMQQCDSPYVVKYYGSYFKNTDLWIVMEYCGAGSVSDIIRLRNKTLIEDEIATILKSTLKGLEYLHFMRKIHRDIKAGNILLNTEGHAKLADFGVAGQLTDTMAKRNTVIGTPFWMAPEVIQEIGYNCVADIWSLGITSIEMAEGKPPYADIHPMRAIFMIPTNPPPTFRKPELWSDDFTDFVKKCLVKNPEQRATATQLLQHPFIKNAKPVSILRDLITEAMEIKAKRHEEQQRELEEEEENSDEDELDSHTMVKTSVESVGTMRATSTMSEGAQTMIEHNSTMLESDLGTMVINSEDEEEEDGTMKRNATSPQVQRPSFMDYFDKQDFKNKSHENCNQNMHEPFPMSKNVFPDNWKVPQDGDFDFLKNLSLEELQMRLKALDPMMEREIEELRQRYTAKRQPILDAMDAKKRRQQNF

Abl (Q252H) (h) (human) = Abl (Q252H) (h) (human) (UniProt P00519)
Chain of Abl (Q252H) (h) (human) (P00519 27-1130 Q252H limits assumed): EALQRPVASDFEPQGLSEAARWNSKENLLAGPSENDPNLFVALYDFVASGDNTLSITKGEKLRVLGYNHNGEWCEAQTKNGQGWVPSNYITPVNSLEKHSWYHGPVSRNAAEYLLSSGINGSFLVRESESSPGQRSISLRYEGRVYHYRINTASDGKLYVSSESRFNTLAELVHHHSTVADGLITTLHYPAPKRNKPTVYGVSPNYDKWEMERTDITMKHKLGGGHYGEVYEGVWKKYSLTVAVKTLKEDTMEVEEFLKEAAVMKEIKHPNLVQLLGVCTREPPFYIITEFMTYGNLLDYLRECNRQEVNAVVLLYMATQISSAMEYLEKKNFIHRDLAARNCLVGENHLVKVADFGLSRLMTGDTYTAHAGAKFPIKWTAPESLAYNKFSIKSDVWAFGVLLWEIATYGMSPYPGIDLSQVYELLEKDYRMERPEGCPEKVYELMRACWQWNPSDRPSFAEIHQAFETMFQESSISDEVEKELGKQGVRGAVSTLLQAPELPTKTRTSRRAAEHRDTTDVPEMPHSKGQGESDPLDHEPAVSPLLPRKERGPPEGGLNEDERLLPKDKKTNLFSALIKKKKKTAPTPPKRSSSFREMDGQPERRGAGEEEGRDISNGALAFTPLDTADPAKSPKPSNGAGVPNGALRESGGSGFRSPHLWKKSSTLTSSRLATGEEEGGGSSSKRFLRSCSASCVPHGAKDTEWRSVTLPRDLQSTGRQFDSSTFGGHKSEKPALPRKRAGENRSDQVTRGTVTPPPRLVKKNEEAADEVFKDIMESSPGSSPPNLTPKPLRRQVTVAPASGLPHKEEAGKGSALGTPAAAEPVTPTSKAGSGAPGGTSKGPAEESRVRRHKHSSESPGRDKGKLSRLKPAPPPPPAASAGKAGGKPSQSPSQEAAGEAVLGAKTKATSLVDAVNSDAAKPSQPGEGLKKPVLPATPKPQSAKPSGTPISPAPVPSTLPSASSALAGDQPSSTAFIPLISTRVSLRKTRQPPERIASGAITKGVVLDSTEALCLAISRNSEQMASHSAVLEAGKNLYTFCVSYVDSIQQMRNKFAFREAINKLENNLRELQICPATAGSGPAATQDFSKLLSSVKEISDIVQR

TrkA (h) (human) = TrkA (h) (human) (UniProt P04629)
SAPK4 (h) (human) = molecular target: T2, SAPK4 (h) (human) (UniProt O15264)
T2 sequence (looked up): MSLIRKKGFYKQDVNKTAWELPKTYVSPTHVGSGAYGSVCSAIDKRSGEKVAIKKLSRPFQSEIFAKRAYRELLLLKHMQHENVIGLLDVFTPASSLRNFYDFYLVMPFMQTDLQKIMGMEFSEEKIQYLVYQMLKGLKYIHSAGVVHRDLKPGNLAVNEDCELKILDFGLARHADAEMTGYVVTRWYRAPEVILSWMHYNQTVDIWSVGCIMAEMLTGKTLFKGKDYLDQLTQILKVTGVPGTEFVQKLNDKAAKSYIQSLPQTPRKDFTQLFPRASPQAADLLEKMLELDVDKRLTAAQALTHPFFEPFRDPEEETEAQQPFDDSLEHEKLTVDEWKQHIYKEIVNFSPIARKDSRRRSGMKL

Rse (h) (human) = molecular target: T3, Rse (h) (human) (UniProt Q06418)
T3 sequence (looked up): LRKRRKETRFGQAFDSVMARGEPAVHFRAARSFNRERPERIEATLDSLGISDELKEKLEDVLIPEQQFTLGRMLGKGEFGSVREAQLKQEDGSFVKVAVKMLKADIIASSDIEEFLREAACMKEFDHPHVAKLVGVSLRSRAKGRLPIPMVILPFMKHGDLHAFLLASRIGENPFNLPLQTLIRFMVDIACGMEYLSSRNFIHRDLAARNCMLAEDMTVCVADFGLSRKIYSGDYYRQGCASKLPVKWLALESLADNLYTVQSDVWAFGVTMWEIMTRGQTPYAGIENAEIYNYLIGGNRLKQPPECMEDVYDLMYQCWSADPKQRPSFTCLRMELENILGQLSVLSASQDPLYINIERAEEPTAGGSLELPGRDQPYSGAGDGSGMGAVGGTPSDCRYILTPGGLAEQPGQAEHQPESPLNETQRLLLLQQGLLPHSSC

Fyn (h) (human) = Fyn (h) (human) (UniProt P06241)
PDGFRβ (h) (human) = PDGFRβ (h) (human) (UniProt P09619)
Chain of PDGFRβ (h) (human) (P09619 557-1106 limits assumed): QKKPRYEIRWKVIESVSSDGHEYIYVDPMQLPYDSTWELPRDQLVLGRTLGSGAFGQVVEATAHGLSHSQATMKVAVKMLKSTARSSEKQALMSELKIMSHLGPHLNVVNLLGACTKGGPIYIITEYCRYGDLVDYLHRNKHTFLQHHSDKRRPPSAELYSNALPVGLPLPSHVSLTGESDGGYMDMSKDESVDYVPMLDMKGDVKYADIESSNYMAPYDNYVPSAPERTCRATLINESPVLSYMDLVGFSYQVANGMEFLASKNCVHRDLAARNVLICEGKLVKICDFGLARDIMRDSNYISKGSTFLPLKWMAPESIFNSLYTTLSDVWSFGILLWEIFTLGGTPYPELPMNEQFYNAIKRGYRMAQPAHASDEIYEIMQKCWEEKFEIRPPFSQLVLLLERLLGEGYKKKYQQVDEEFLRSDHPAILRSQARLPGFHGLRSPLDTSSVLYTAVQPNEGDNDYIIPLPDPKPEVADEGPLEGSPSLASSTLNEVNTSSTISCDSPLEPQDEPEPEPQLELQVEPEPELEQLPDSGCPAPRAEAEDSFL

BrSK1 (h) (human) = molecular target: T4, BrSK1 (h) (human) (UniProt Q8TDC3)
T4 sequence (looked up): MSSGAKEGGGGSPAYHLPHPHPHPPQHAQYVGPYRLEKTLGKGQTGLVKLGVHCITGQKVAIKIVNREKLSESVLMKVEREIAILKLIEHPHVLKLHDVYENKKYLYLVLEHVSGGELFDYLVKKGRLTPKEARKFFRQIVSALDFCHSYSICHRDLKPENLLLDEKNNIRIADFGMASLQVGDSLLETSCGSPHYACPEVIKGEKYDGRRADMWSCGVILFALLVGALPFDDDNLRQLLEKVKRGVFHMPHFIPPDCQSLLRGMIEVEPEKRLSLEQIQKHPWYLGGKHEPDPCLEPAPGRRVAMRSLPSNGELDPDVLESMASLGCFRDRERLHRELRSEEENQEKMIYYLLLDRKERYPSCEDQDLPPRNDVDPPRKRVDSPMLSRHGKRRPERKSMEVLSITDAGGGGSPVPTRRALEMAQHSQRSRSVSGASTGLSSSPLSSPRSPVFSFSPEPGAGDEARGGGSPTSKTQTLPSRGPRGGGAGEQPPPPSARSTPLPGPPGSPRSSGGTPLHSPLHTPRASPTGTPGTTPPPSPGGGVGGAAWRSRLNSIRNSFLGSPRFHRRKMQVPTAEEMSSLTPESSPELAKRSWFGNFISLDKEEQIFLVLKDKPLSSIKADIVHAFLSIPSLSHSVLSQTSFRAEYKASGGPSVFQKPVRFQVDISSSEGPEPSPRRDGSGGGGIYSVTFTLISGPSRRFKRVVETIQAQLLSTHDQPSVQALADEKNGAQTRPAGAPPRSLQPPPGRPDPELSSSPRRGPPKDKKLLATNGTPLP

Abl(T315I) (h) (human) = Abl(T315I) (h) (human) (UniProt P00519)
Chain of Abl(T315I) (h) (human) (P00519 27-1130 T315I limits assumed): as the sequence (P00519 27-1130 Q252H limits assumed) above, with H226Q, T289I counted along it

Src(1-530) (h) (human) = Src(1-530) (h) (human) (UniProt P12931)
EphB4 (h) (human) = EphB4 (h) (human) (UniProt P54760)
Chain of EphB4 (h) (human) (P54760 561-987 limits assumed): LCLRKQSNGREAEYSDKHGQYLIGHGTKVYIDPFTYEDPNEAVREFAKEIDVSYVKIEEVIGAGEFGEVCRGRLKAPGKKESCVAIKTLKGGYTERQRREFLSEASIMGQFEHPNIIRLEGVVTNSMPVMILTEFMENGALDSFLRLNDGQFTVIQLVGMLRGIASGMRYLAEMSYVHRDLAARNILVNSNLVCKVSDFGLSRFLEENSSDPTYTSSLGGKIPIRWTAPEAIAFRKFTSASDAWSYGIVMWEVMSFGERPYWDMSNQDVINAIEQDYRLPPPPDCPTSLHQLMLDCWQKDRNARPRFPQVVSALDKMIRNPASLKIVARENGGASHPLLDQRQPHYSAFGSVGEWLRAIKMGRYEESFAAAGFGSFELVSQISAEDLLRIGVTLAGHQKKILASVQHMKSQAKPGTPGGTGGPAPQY

[2] = molecular target: IR (h), activated (human) (UniProt P06213)
Chain of IR (h), activated (human) (P06213 1005-1310 limits assumed): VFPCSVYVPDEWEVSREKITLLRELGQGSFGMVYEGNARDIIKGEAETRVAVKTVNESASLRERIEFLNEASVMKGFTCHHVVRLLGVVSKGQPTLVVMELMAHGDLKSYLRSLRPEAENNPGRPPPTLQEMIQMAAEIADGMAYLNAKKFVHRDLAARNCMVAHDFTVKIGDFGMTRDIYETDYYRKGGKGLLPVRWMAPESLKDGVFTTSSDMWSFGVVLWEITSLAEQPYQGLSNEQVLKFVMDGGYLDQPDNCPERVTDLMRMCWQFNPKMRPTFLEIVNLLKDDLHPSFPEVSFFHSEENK

MAPK2 (h) (human) = MAPK2 (h) (human) (UniProt P28482)
Chain of MAPK2 (h) (human) (P28482 whole entry): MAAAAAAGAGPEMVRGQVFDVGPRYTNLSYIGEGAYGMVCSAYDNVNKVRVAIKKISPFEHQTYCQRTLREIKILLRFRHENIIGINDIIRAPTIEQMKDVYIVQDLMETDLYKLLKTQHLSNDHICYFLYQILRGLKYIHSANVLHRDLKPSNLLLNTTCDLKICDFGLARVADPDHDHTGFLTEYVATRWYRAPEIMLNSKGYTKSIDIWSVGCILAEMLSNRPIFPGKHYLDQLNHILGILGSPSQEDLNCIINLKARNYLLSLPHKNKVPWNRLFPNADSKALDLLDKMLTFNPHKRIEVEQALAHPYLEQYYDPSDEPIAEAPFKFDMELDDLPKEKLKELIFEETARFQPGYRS

PRK2 (h) (human) = PRK2 (h) (human) (UniProt Q16513)
GRK6 (h) (human) = GRK6 (h) (human) (UniProt P43250)

A % activity at 100 µM (PKG1α (h) (human)) of 64%, a % activity at 100 µM [1] of 85% and a % activity at 100 µM (MST2 (h) (human)) of 19% were found for MMI-0300 (peptide) in this work. For the same substance, the % activity at 100 µM (Abl (Q252H) (h) (human)) was 82%, the % activity at 100 µM (TrkA (h) (human)) was 25% and the % activity at 100 µM (SAPK4 (h) (human)) was 96%. For the same substance, the % activity at 100 µM (Rse (h) (human)) was 88%, the % activity at 100 µM (Fyn (h) (human)) was 74% and the % activity at 100 µM (PDGFRβ (h) (human)) was 81%. For the same substance, the % activity at 100 µM (BrSK1 (h) (human)) was 67%, the % activity at 100 µM (Abl(T315I) (h) (human)) was 97% and the % activity at 100 µM (Src(1-530) (h) (human)) was 23%. The % activity at 100 µM (EphB4 (h) (human)) was 44%, the % activity at 100 µM [2] was 79% and the % activity at 100 µM (MAPK2 (h) (human)) was 98%. The % activity at 100 µM (PRK2 (h) (human)) was 33% and the % activity at 100 µM (GRK6 (h) (human)) was 147%.
